Experiment [1] has as its target T1, human endothelin receptor sub-type B (human, UniProt P24530 27-442).
T1 construct: no signal peptide limits are stated; also called ETB-R; ETBR
T1 sequence: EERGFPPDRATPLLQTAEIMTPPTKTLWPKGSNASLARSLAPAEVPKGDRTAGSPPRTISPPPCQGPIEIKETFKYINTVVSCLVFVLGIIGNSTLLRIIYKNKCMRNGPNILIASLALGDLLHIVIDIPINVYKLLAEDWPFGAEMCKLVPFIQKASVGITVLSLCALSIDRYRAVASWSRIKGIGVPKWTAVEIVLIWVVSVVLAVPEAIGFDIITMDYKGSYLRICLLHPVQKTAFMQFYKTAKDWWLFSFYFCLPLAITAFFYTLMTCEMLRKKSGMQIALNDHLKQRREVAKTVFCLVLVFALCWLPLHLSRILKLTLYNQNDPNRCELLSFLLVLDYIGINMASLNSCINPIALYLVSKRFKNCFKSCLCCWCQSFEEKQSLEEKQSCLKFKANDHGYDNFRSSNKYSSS
In words: flow cytometry on CHO-ETBR cells; apparent KD = concentration giving 50% of plateau MFI.

Experiment [2] addresses T1, human endothelin receptor sub-type B. In words: flow cytometry on CHO-ETBR cells pre-incubated 2 h at 37° C. with 300 nM endothelin 1 (receptor internalised). For orientation: Flow cytometry measures light scatter and fluorescence of single cells or particles in a stream.
In experiment [3] the target is T2, peptide C7 of the ETB-R Pep-scan membrane (human).
T2 construct: Residues are inferred as for C5, from the one-residue offset and C11 = 71-82
T2 peptide: APAEVPKGDRTA
Nature of the experiment: Pep-scan peptide membrane, 1 µg/ml antibody, chemiluminescent detection.

In experiment [4] the target is T3, peptide C8 of the ETB-R Pep-scan membrane (human).
T3 construct: Residues are inferred as for C5, from the one-residue offset and C11 = 71-82
T3 peptide: PAEVPKGDRTAG
The experiment is described as above.

For experiment [5], the target named is T4, peptide C9 of the ETB-R Pep-scan membrane (human).
T4 construct: Residues are inferred as for C5, from the one-residue offset and C11 = 71-82
T4 peptide: AEVPKGDRTAGS
The experiment is described as above.

Experiment [6] concerns the target T5, peptide C10 of the ETB-R Pep-scan membrane (human).
T5 construct: Residues are inferred as for C5, from the one-residue offset and C11 = 71-82
T5 peptide: EVPKGDRTAGSP
The experiment is described as above.

The target of experiment [7] is T6, peptide C5 of the ETB-R Pep-scan membrane (human).
T6 construct: The peptides are 12-mers offset by one residue, C11 is stated to be 71-82, and C5-C10 share 70-76
T6 peptide: SLAPAEVPKGDR
The experiment is described as above.

The target of experiment [8] is T7, peptide C6 of the ETB-R Pep-scan membrane (human).
T7 construct: Residues are inferred as for C5, from the one-residue offset and C11 = 71-82
T7 peptide: LAPAEVPKGDRT
Described as above.

Changes are numbered by the printed parent chain.

B1: Rendomab-B41 (antibody, IgG1, V domains shown)
VH: QVQLQQPGAELVKPGASVKLSCKASGYTFTSYWMHWVKQRPGRGLEWIGRIDPDSGGTKYNEKFKSKATLTVDKPSNTANMQLSSLTSEDSAVYYCVREGWDAWFVYWGQGTLLTVSA
VL: DVLMTQTPLSLPVSLGDQASISCRSSQSIVHSNGNTYLEWYLQKPGQSPKLLIYKVFNRFSGVPDRFSGSGSGTDFTLKISRVEAEDLGVYYCFQGSHVPLTFGAGTKLELKR
notes: Murine monoclonal IgG1/kappa purified from ascites; also called hybridoma CNCM I-5104
Turning to B1, in experiment [1], the Kd was ~1 nM. In addition, the “drop of binding after pre-incubation of the cells with 300 nM endothelin 1” value in experiment [2] is > 50%.

B2: Rendomab-B36 (antibody, IgG3, V domains shown)
VH: QVQLQQPGAELVKPGASVKLSCKASGYTFTSYWIHWVNQRPGRGLEWIGRIDPNSGGTKYNEKFKSKATLTVDKTSSTAYMQFSSLTSEDSAVYYCAREGEFAWFAYWGQGTLVTVSA
VL: B1 VL with S28N, N35Y, F57S, A105S, L111I
notes: Murine monoclonal IgG3/kappa purified from ascites; also called hybridoma CNCM I-5103
With B2, the Kd in experiment [1] is ~1 nM. In experiment [2], the “drop of binding after pre-incubation of the cells with 300 nM endothelin 1” value was > 50%.

B3: Rendomab-B49 (antibody, IgG1, V domains shown)
VH: QVQLQQPGAALVKPGASVKLSCKASGYTFISYWMLWVKQRPGRGLEWIGRIDPDSGGTKYNEKFKSKATLTVDKSSSTAYMQLSSLTSEDSAVYYCAREGDYAWFAYWGQGTLVPVSA
VL: DVLMTQTPLSLPVSLGDQASISCRSSQSIVHSNGNTYLEWYLQKPGQSPKLLIYKVSNRFSGVPDRFSGSGSGTDFTLKISRVEAEDLGVYYCFQGSHVPWTFGGGTKLEIK
notes: Murine monoclonal IgG1/kappa purified from ascites; also called hybridoma CNCM I-5084
For the molecule B3, the binding result in experiment [3], in experiment [4], in experiment [5], in experiment [6], in experiment [7] and in experiment [8] was “binds” throughout.
